For two molecules, rate of ATP hydrolysis of WT NSF hexamers with soluble SNARE complex (300 nM) and αSNAP (1 μM) against free NSF and K0.5 results are on record in publication PMC8163800, “Extreme parsimony in ATP consumption by 20S complexes in the global disassembly of single SNARE complexes” (Nature Communications, 2021).

The target in series [1] is SNARE–αSNAP complex on vesicles (rat | bovine), P60881.
Substrate in series [2]: Nc1ncnc2c1ncn2[C@@H]1O[C@H](COP(=O)(O)OP(=O)(O)OP(=O)(O)O)[C@@H](O)[C@H]1O
In words: ATPase titration, phosphate release by MESG/PNP (ELIPA kit), Hill fit. In kind it is biochemical, Cricetulus griseus. Conditions: Hill coefficient 0.58 ± 0.09, 5 mM MgCl2, 50 mM HEPES pH 7.4, 50 mM NaCl, 37 °C.

B1: N-ethylmaleimide sensitive factor (NSF), wild-type hexamer, P18708 1-744 (enzyme)
chain: MAGRSMQAARCPTDELSLSNCAVVSEKDYQSGQHVIVRTSPNHKYIFTLRTHPSVVPGSVAFSLPQRKWAGLSIGQEIEVALYSFDKAKQCIGTMTIEIDFLQKKNIDSNPYDTDKMAAEFIQQFNNQAFSVGQQLVFSFNDKLFGLLVKDIEAMDPSILKGEPASGKRQKIEVGLVVGNSQVAFEKAENSSLNLIGKAKTKENRQSIINPDWNFEKMGIGGLDKEFSDIFRRAFASRVFPPEIVEQMGCKHVKGILLYGPPGCGKTLLARQIGKMLNAREPKVVNGPEILNKYVGESEANIRKLFADAEEEQRRLGANSGLHIIIFDEIDAICKQRGSMAGSTGVHDTVVNQLLSKIDGVEQLNNILVIGMTNRPDLIDEALLRPGRLEVKMEIGLPDEKGRLQILHIHTARMRGHQLLSADVDIKELAVETKNFSGAELEGLVRAAQSTAMNRHIKASTKVEVDMEKAESLQVTRGDFLASLENDIKPAFGTNQEDYASYIMNGIIKWGDPVTRVLDDGELLVQQTKNSDRTPLVSVLLEGPPHSGKTALAAKIAEESNFPFIKICSPDKMIGFSETAKCQAMKKIFDDAYKSQLSCVVVDDIERLLDYVPIGPRFSNLVLQALLVLLKKAPPQGRKLLIIGTTSRKDVLQEMEMLNAFSTTIHVPNIATGEQLLEALELLGNFKDKERTTIAQQVKGKKVWIGIKKLLMLIEMSLQMDPEYRVRKFLALLREEGASPLDFD
Molecule B1 registered a rate of ATP hydrolysis of WT NSF hexamers with soluble SNARE complex (300 nM) and αSNAP (1 μM) against free NSF in series [1] of 24 fold.

B2: free NSF (NSF hexamer) (Cricetulus griseus) (protein)
chain: MAGRSMQAARCPTDELSLSNCAVVSEKDYQSGQHVIVRTSPNHKYIFTLRTHPSVVPGSVAFSLPQRKWAGLSIGQEIEVALYSFDKAKQCIGTMTIEIDFLQKKNIDSNPYDTDKMAAEFIQQFNNQAFSVGQQLVFSFNDKLFGLLVKDIEAMDPSILKGEPASGKRQKIEVGLVVGNSQVAFEKAENSSLNLIGKAKTKENRQSIINPDWNFEKMGIGGLDKEFSDIFRRAFASRVFPPEIVEQMGCKHVKGILLYGPPGCGKTLLARQIGKMLNAREPKVVNGPEILNKYVGESEANIRKLFADAEEEQRRLGANSGLHIIIFDEIDAICKQRGSMAGSTGVHDTVVNQLLSKIDGVEQLNNILVIGMTNRPDLIDEALLRPGRLEVKMEIGLPDEKGRLQILHIHTARMRGHQLLSADVDIKELAVETKNFSGAELEGLVRAAQSTAMNRHIKASTKVEVDMEKAESLQVTRGDFLASLENDIKPAFGTNQEDYASYIMNGIIKWGDPVTRVLDDGELLVQQTKNSDRTPLVSVLLEGPPHSGKTALAAKIAEESNFPFIKICSPDKMIGFSETAKCQAMKKIFDDAYKSQLSCVVVDDIERLLDYVPIGPRFSNLVLQALLVLLKKAPPQGRKLLIIGTTSRKDVLQEMEMLNAFSTTIHVPNIATGEQLLEALELLGNFKDKERTTIAQQVKGKKVWIGIKKLLMLIEMSLQMDPEYRVRKFLALLREEGASPLDFD
notes: N-terminal His-tag cut by thrombin, pET28a
As to B2, the K0.5 in series [2] worked out at 9 ± 2 µM.
